According to PMC3873856 (Biochemistry, 2013):
Where “and” joins values, the source holds several entries; their conditions need not be identical. Identical values can stand only once. Bridges are numbered along the chain shown (N, C = ends). Roman numbers before positions name the chains, in order. Where no end group is shown, it is not given here.

T1: Nrp1 (Nrp1-b1b2) / VEGF-A binding (Homo sapiens, UniProt O14786)
T1 sequence (O14786 274-586): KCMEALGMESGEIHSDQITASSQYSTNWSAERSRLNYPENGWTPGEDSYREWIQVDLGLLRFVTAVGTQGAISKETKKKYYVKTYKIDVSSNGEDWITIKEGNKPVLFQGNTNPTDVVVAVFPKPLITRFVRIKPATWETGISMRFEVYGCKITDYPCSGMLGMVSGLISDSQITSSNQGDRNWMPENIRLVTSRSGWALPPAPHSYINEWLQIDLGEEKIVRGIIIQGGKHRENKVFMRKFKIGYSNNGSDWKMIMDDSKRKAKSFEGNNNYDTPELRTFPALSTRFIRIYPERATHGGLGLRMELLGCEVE

T2: Nrp1-b1b2 (residue 274 to 586) (UniProt O14786 274-586)
T2 sequence (looked up): T1 sequence (O14786 274-586)

B1: Sema3A.3, furin processed variant of the Sema3A C-terminal domain (peptide)
chain: NTMDEFCEQVWKRDRKQRRQRPGHTPGNSNKWKHLQENKKGRNRRTHEFERAPR

How the values were obtained:
[1] = biological target: T1, Nrp1 (Nrp1-b1b2) / VEGF-A binding; assay: Plate-based inhibition of AP-VEGF-A binding to Nrp1; conditions: comparison of IC50 values, in words
[2] = biological target: T2, Nrp1-b1b2 (residue 274 to 586); assay: plate-based competition assay with alkaline phosphatase fused ligand

Row | Molecule | potency relative to C-furSema in inhibiting VEGF-A binding to Nrp1 [1] | IC50 [2]
1 | I: CQGYWRHVPPSPREAPGAPRSPEPDQKKPRNRR-OH / II: CQGYWRHVPPSPREAPGAPRSPEPDQKKPRNRR-OH (disulfide I:1-II:1) [ΔN-C-furSema] | approximately five-fold less potent | 
2 | B1 |  | 27 nM
3 | GLIHQYCQGYWRHVPPSPREAPGAPRSPEPDQKKPRNRR (also: homodimer) [furin-processed C-terminal domain of Sema3F (C-furSema), homodimeric] |  | 25 nM and 24 nM
4 | GLIHQYCQGYWRHVPPSPREAPGAPRSPEPDQKKPRNRA (also: homodimer, intermolecular disulfide Cys7-Cys7) [C-furSema R779A] |  | 4500 nM
5 | GLIHQYSQGYWRHVPPSPREAPGAPRSPEPDQKKPRNRR [monomeric C-furSema^Mon] |  | 1300 nM
6 | NTMDEFCEQVWKRDRKQR [Sema3A.1, shortest furin processed variant of the Sema3A C-terminal domain] |  | 1100 nM
7 | CQGYWRHVPPSPREAPGAPRSPEPDQKKPRNRR [ΔN-C-furSema] |  | 111 nM
8 | NTMDEFCEQVWKRDRKQRRQRPGHTPGNSNKWKHLQENKKGRNRR [Sema3A.2, furin processed variant of the Sema3A C-terminal domain] |  | 45 nM
